Results taken from patent US20060062783A1 (Amgen, published 2006).
Each block holds one binder with its values, some of them ahead of it.

Legend:
[1] = molecular target: T1, Human PTH (1-34) (human, not fully specified); assay: BiaCore, 25° C., 34mer
T1 construct: Synthetic peptide bought from Bachem; also called hPTH (1-34); human 34mer
T1 peptide: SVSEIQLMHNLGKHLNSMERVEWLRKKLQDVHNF

[2] = molecular target: T1, Human PTH (1-34); assay: BiaCore, 37° C., 34mer
[3] = molecular target: T2, Human PTH (1-84) (human); assay: ELISA on coated peptide; B cell supernatant
T2 construct: Synthetic peptide bought from Bachem; also called hPTH1-84; Hu 84mer
T2 peptide: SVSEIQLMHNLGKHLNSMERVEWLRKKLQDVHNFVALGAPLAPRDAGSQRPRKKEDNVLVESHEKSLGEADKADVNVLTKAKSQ

[4] = molecular target: T3, Human PTH (18-48) (human); assay: ELISA on coated peptide; B cell supernatant
T3 construct: Synthetic peptide bought from Bachem; also called hPTH18-48; 18-48mer
T3 peptide: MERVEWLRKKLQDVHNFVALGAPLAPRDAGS

[5] = molecular target: T4, Rat PTH (1-84) (rat); assay: ELISA on coated peptide; B cell supernatant
T4 construct: Synthetic peptide bought from Bachem; also called Rat 84mer
T4 peptide: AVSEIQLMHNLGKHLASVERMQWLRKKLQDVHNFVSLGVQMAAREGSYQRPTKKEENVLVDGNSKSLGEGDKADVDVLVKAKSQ

[6] = molecular target: T2, Human PTH (1-84); assay: BiaCore, 37° C., 84mer
[7] = molecular target: T1, Human PTH (1-34); assay: cell-based or functional assay
[8] = molecular target: T1, Human PTH (1-34); assay: cell-based or functional assay
[9] = molecular target: T5, PTH peptide RVEWLRKKL (amino acids 20-28, wild type); assay: alanine-scanning peptide array
T5 construct: Peptide on a custom peptide array; also called wild-type peptide
T5 peptide: RVEWLRKKL

[10] = molecular target: T6, PTH 20-28 peptide AVEWLRKKL; assay: alanine-scanning peptide array
T6 construct: Alanine variant; the entry already holds the change
T6 peptide: AVEWLRKKL

[11] = molecular target: T7, PTH 20-28 peptide RAEWLRKKL; assay: alanine-scanning peptide array
T7 construct: Alanine variant; the entry already holds the change
T7 peptide: RAEWLRKKL

[12] = molecular target: T8, PTH 20-28 peptide RVAWLRKKL; assay: alanine-scanning peptide array
T8 construct: Alanine variant; the entry already holds the change
T8 peptide: RVAWLRKKL

[13] = molecular target: T9, PTH 20-28 peptide RVEALRKKL; assay: alanine-scanning peptide array
T9 construct: Alanine variant; the entry already holds the change
T9 peptide: RVEALRKKL

[14] = molecular target: T10, PTH 20-28 peptide RVEWARKKL; assay: alanine-scanning peptide array
T10 construct: Alanine variant; the entry already holds the change
T10 peptide: RVEWARKKL

[15] = molecular target: T11, PTH 20-28 peptide RVEWLAKKL; assay: alanine-scanning peptide array
T11 construct: Alanine variant; the entry already holds the change
T11 peptide: RVEWLAKKL

[16] = molecular target: T12, PTH 20-28 peptide RVEWLRAKL; assay: alanine-scanning peptide array
T12 construct: Alanine variant; the entry already holds the change
T12 peptide: RVEWLRAKL

[17] = molecular target: T13, PTH 20-28 peptide RVEWLRKAL; assay: alanine-scanning peptide array
T13 construct: Alanine variant; the entry already holds the change
T13 peptide: RVEWLRKAL

[18] = molecular target: T14, PTH 20-28 peptide RVEWLRKKA; assay: alanine-scanning peptide array
T14 construct: Alanine variant; the entry already holds the change
T14 peptide: RVEWLRKKA

[19] = molecular target: T15, Human PTH (7-84) (human); assay: ELISA on coated peptide; B cell supernatant
T15 construct: Synthetic peptide bought from Bachem; also called hPTH7-84; 7-84mer
T15 peptide: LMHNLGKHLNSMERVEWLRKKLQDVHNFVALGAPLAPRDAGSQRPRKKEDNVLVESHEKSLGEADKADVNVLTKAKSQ

[20] = molecular target: T2, Human PTH (1-84); assay: KinExA, solution equilibrium, room temperature
Text: (§1) Kinetic analysis. […] This method involves solution-based determination of formal affinity measurements at equilibrium. Dual curve analysis with two known antibody concentrations and unknown antigen concentration was used to determine the KD measurements on human 34mer, human 84mer, cynomolgus 84mer and rat 84mer.

[21] = molecular target: T1, Human PTH (1-34); assay: KinExA, solution equilibrium, room temperature
Text: as §1

[22] = molecular target: T4, Rat PTH (1-84); assay: KinExA, solution equilibrium, room temperature
Text: as §1

[23] = molecular target: T16, Cynomolgus PTH (1-84) (cynomolgus); assay: KinExA, solution equilibrium, room temperature
T16 construct: Synthetic peptide (CS Bio Company for the KinExA measurement and the monkey study); also called cynoPTH (1-84); cynomolgus 84mer
T16 peptide: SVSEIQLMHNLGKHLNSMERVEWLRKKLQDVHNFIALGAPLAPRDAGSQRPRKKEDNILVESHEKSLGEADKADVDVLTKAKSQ
Text: as §1

[24] = molecular target: T17, Human PTH-related peptide (1-34) (human); assay: indirect: competition ELISA on biotinylated human PTH 1-34
T17 construct: Synthetic peptide bought from Bachem; also called PTH-related protein 1-34; PTHrP
Description: Biotinylated human PTH 1-34 was bound to streptavidin plates at 1 μg/mL for 30 minutes at RT. The plates were washed 5 times with dH2O. […] The titrated antibody was then transferred to the plate coated with human PTH 1-34 and allowed to bind for 1 hour at RT. After washing the plates 5 times with dH2O, 50 μL of Gt anti-Human (Fc)-HRP at 1 μg/mL was added to each well and the plates held 1 hour at RT. After washing the plates 5 times with dH2O, 50 μL of TMB substrate was added to each well. To stop the reaction, 50 μL of 1M phosphoric acid was added to each well. The plates were read at wavelength 450 nm.

[25] = molecular target: T18, endogenous human PTH in pooled serum from hemodialysis patients (human, UniProt P01270 32-115, limits assumed); assay: immunoassay-based Scatchard analysis in pooled serum of hemodialysis patients
T18 construct: Circulating hormone; may be a mix of intact PTH and fragments
T18 sequence (looked up): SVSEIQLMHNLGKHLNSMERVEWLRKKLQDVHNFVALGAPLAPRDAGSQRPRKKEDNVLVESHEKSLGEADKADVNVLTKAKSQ

T17 sequence (peptide, as listed by the source): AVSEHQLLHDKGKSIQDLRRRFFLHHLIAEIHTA

B1: anti-PTH mAb 011 (antibody, IgG2, V domains shown)
VH: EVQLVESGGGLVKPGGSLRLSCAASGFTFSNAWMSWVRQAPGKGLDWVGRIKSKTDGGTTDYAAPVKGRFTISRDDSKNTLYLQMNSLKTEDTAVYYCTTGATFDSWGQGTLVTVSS
VL: DIVMTQSPLSLPVTPGEPASISCRSSQSLLHSNGYKFLDWFLQKPGQSPQLLIYLGSYRASGVPDRFSGRGSGTDFTLKISRVEAEDVGVYYCMQALQTPWTFGQGTKVEIK
notes: also called AB-PTH-XG2-011; well 133A8
Kd [1]: 1 nM
Kd [2]: 3.5 nM

B3: anti-PTH mAb 045 (antibody, IgG2, V domains shown)
VH: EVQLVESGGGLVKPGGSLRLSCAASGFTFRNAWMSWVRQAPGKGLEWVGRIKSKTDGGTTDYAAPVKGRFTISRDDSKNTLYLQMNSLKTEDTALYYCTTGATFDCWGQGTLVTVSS
VL: DIVMTQSPLSLPVTPGEPASISCRSSQSLLHSNGYNYLDWFLQKPGQSPQLLIYLGSYRASGVPDRFSGSGSGTDFTLKISRVEAEDVGIYYCMQARQTPWTFGQGTKVEIK
notes: also called AB-PTH-XG2-045; well 123B12
Kd [1]: 0.5 nM
Kd [2]: 2 nM

B4: anti-PTH mAb 163 (antibody, IgG2, V domains shown)
VH: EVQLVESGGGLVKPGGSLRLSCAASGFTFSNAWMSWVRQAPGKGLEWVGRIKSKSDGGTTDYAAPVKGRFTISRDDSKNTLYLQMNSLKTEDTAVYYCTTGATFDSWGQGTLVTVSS
VL: DIVMTQSPLSLPVTPGEPASISCRSSQSLLHRNGYKYLDWYLQKPGQSPQLLIYLGSYRASGVPDRFSGSGSGTDSTLKISRVEAEDVGVYYCMQALQTPWTFGQGTKVEIK
notes: also called AB-PTH-XG2-163; well 130A1
Kd [1]: 3 nM
Kd [2]: 7.9 nM
Kd [6]: 41.1 nM

B5: anti-PTH mAb 140 (antibody, IgG2, V domains shown)
VH: EVQLVESGGGLVKPGGSLTLSCAASGFTFSNAWLSWVRQAPGKGLEWVGRIKSKTDGGTTDYAAPVKGRFTVSRDDSKNTLFLQMNSLKTEDTAVYYCTTGATFDSWGQGTLVTVSS
VL: DIVMTQSPLSLPVTPGEPASISCRSSQSLLHSNGYKFLDWFLQKPGQSPQLLIYLGSYRASGVPDRFSGSGSGTDFTLTISRVEAEDVGVYYCMQALQTPWTFGQGTKVEIK
notes: also called AB-PTH-XG2-140; well 132G12
Kd [1]: 0.8 nM
Kd [2]: 5.2 nM

B7: anti-PTH mAb 057 (antibody, IgG2, V domains shown)
VH: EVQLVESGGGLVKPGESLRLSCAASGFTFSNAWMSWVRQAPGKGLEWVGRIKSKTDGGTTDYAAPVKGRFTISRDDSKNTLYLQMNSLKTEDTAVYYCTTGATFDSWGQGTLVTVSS
VL: DIVMTQSPLSLPVTPGEPASISCRSSQSLLYSNGYKYLDWYLQKPGQSPQLLIYLGSYRASGVPDRFSGSGSGTDFTLKISRVEAEDVGVYYCMQALQTPWTFGQGTKVEIK
notes: also called AB-PTH-XG2-057; well 119G2
Kd [1]: 1 nM
Kd [2]: 1 nM

B8: anti-PTH mAb 124 (antibody, IgG2, V domains shown)
VH: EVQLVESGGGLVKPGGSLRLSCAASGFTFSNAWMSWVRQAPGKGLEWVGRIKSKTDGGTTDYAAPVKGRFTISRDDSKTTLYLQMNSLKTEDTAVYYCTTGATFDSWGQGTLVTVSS
VL: DIVMTQSPLSLPVTPGEPASISCRSSQSLLYSNGFKYLDWFLQKPGQSPQLLIYLGSYRASGVPDRFSGSGSGTDFTLKISRVEAEDVGVYYCMQALQTPWTFGQGTKVEIK
notes: also called AB-PTH-XG2-124; well 135H11
Kd [1]: 0.5 nM
Kd [2]: 3.3 nM

B10: anti-PTH mAb 026 (antibody, IgG2, V domains shown)
VH: QVQLVESGGGVVQPGRSLRLSCAASGFTFSSYGMHWVRQAPGKGLDWVAVISYDGSNKFYADSVKGRFTISRDNSKNTLYLQMNSLRAEDTAVYYCARDHWELLDYWGQGTLVTVSS
VL: DIVMTQTPLSLSVTPGQPASISCKSSQSLLDSDGKTYLYWYLQRSGQPPQLLIHEVSNRFSGVPYRFIGSGSGTDFTLKISRVEAEDVGAYYCMQGKQFPFIFGPGTKVDIK
notes: also called AB-PTH-XG2-026; well 126B1
Kd [1]: 3 nM
Kd [2]: 9.5 nM

B11: anti-PTH mAb 183 (antibody, human IgG2, V domains shown)
VH: EVQLVQSGAEVKKPGESLKISCKGSGYSFTSYWIGWVRQMPGKGLEWMGIISPGDSDTRYSPSFQGQVTISADKSISTAYLQWSSLKASDTAMYYCARQGDYVWGSYDSWGQGTLVTVSS
VL: DIVMTQTPLSLSVTPGRPASISCKSSQSLLDSDGKTYLYWYLQKPGQPPQLLIYEVSNRFSGVPDRFSGSGSGTDFTLRISRVEAEDVGIYFCMPSIHLWTFGQGTKVEIK
IC50 of calcium influx in UMR-106 cells (FLIPR) [7]: ~100 nM
Kd [1]: 0.08 nM
Kd [2]: 0.1 nM
Kd [6]: 1 nM
IC50 (read off the curve) [8]: ~100 nM
binding result [9]: binds
binding result [10]: no binding
binding result [11]: no binding
binding result [12]: no binding
binding result [13]: binds
binding result [14]: no binding
binding result [15]: no binding
binding result [16]: binds
binding result [17]: no binding
binding result [18]: no binding
OD [3]: 1.4 OD450
OD [19]: 1.95 OD450
OD [4]: 3.26 OD450
OD [5]: 0.62 OD450
KD High [20]: 0.039 nM
KD Low [20]: 0.012 nM
Kd [20]: 0.022 nM
KD High [21]: 0.065 nM
KD Low [21]: 0.014 nM
Kd [21]: 0.033 nM
KD High [22]: 5 nM
KD Low [22]: 2 nM
Kd [22]: 3 nM
KD High [23]: 0.018 nM
KD Low [23]: 0.005 nM
Kd [23]: 0.01 nM
binding result [24]: no binding (tested: 5 µg/mL PTHrp)
Kd [25]: 0.06 nM

Second part, the binder after the results:

OD [3]: 1.46 OD450
OD [4]: 0.25 OD450
OD [5]: 2.11 OD450
B2: anti-PTH mAb 262 (antibody, IgG2, V domains shown)
VH: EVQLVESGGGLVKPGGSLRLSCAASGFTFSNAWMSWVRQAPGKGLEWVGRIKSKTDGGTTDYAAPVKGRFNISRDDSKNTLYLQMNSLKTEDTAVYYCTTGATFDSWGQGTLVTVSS
VL: DIVMTQSPLSLPVTPGEPASISCRSSQSLLHSNGYKYLDWFLQKPGQSPQLLIYLGSIRASGVPDRFSGSGSGTDFTLKISRVEAEDVGVYYCMQALQTPWTFGQGTKVEIK
notes: also called XG2-262; AB-PTH-XG2-262

Kd [1]: 0.8 nM
Kd [2]: 0.4 nM
Kd [6]: 1.6 nM
B6: anti-PTH mAb 214 (antibody, IgG2, V domains shown)
VH: EVQLVESGGGLVKPGGSLRLSCAASGSTFSNAWMSWVRQAPGKGLEWVGRIKSRTDGGTADYAAPVKGRFTISRDDLKKTLYLQMNSLKTEDTAVYYCTTYYFDSSGFPFDYWGQGTLVTVSS
VL: DIVMTQSPLYLPVTPGEPASISCRSSQSLLHSNGYKYLEWYLQKPGQSPQLLVYLGSNRASGVPDRFSGSGSGTDFTLKISRVEAEDVGVYYCMQALQTPLTFGGGTKVEIK
notes: also called AB-PTH-XG2-214; well 267D10

Kd [1]: 0.35 nM
Kd [2]: 0.6 nM
Kd [6]: 7.1 nM
B9: anti-PTH mAb 225 (antibody, IgG2, V domains shown)
VH: not shown
VL: EIVMTQSPLNLPVTPGEPASISCRSSQSLLHSNGYKYLEWYLQKPGQSPQLLIYLGSNRASGVPDRFSGSGSGTDFTLKISRVEAEDVGVYYCMQTLQIPLTFGGGTKVEIK
notes: also called well 275A4

Kd [1]: 0.28 nM
Kd [2]: 0.64 nM
B12: anti-PTH mAb 168g2/183k (antibody, V domains shown)
VH: EVQLVQSGAEVKKPGESLKISCKGSRYIFTNYWIGWVRQMPGKGLEWMGIIYPGDSDTRYSPSFQGQVTISADMSISTAYLQWSSLKASDTAMYYCARQGDYVWGSFDSWGQGTLVTVSS
VL: DIVMTQTPLSLSVTPGRPASISCKSSQSLLDSDGKTYLYWYLQKPGQPPQLLIYEVSNRFSGVPDRFSGSGSGTDFTLRISRVEAEDVGIYFCMPSIHLWTFGQGTKVEIK

Kd [1]: 2.7 nM
Kd [2]: 2.6 nM
B13: anti-PTH mAb 168 (antibody, human IgG2, V domains shown)
VH: EVQLVQSGAEVKKPGESLKISCKGSRYIFTNYWIGWVRQMPGKGLEWMGIIYPGDSDTRYSPSFQGQVTISADMSISTAYLQWSSLKASDTAMYYCARQGDYVWGSFDSWGQGTLVTVSS
VL: DIVMTQTPLSLSVTPGQPASISCKSSQSLLDSDGKTYLYWYLQKPGQPPQLLIYEVSNRFSGVPDRFSGSGSGTDFTLKISRVEAEDVGVYYCMQSIQLWTFGQGTKVEIK
notes: also called XG2-168; AB-PTH-XG2-168
